# Experiment: soluble on expression in E. coli; label from the status in PepcDB or PDB records
row,Sequence,soluble on expression in E. coli
1,MGTYKKEKSRIGREGANEKKPGNLRVKGENFYRNAKDVARVNMYRGGKAKYNAAGELVRAAEFQSSEVPKARIQPDRRWFNNTRVIAQPTLTQFREAMGQKLNDPYQVLLRRNKLPMSLLQENTEIPKVRVLESEPFENTFGPKSQRKRPKISFDSVAELAKESDEKQNAYEEKIEERILANPDESDDVMLAARDAIFSKGQSKRIWNELYKVIDSSDVLIQVLDARDPVGTRCGTVERYLRNEASHKHMILVLNKVDLVPTSVAAAWVKILAKEYPTIAFHASINNSFGKGSLIQILRQFASLHSDKKQISVGLIGFPNAGKSSIINTLRKKKVCNVAPIPGETKVWQYVALMKRIFLIDCPGIVPPSSNDSDAELLLKGVVRVENVSNPEAYIPTVLSRCKVKHLERTYEISGWNDSTEFLAKLAKKGGRLLKGGEPDEASVAKMVLNDFMRGKIPWFIGPKGLSSSNDEINSSQKVATQQTEGSDQDGEEAEEEWHGISDDGKADESESTKPVAEGSASESTDESAVDDNKNRS,not soluble
2,MSAPNPKAFPLADAALTQQILDVVQQAANLRQLKKGANEATKTLNRGISEFIIMAADCEPIEILLHLPLLCEDKNVPYVFVPSRVALGRACGVSRPVIAASITTNDASAIKTQIYAVKDKIETLLI,soluble
3,MSLGLTTKPLSLKVNAALFDVDGTIIISQPAIAAFWRDFGKDKPYFDAEHVIQVSHGWRTFDAIAKFAPDFANEEYVNKLEAEIPVKYGEKSIEVPGAVKLCNALNALPKEKWAVATSGTRDMAQKWFEHLGIRRPKYFITANDVKQGKPHPEPYLKGRNGLGYPINEQDPSKSKVVVFEDAPAGIAAGKAAGCKIIGIATTFDLDFLKEKGCDIIVKNHESIRVGGYNAETDEVEFIFDDYLYAKDDLLKWEGHHHHHH,soluble
4,MGSDKIHHHHHHMKSKGSRLSTDCPVEFPKIVSGFAEEVKIRRQSSQGQYAVDSHPPKSPELKHRRQRSSSFVNGKCRNRDLPLLDNKKAQEINTNSHGQDIGIKNLPRQRELLNAKNGIDFTLMVAGQSGLGKTTFINSLFSTSLIDDDIKENKPIIRYKSIVEGDGTHLNFNVIDTPGFGNNMDNAFTWRTMVNYIDEEIRSYIFQEEQPDRTKMVDNRVHCCLYFLRPSNKGIDTLDVVTMKKLAKRVNLIPVIAKSDLLTKEELKNFKTQVREIIRVQDIPVCFFFGDEVLNATQDIFQKYPFSIIASNEYIFNEKGEKVKGRQYKWGAVDIENEKYCDFKILQKTIFDWNLIDLVESTEDYYEKCRSEMLRTRLLKARDCLTTKSVDITEEQRKFLEEEMNFDEIEENKLKNYKCYEIINKTVMDKVATEWDPEFITRQLEAKKKFNELSNREISKFRDWKKSLFMEQENFNQEIEQLNHKLENLQLECQDLEYKLLIGKSSNSHSTDSATLVNVHIKR,not soluble
5,MGSDKIHHHHHHLTNLLVIGATGNIGQPLIRDLQDDPDVHLFAGVHNSEHAKQALNGLKVQVRRFDFLDPATFEQALADIDKVFFVRPPQLAKPKEDMYPFLDALVARHVKQVVFVSLLGVAHNPMTPHHQIEKRIVELGLPYTFIRPSFFMQNLNTTHQADIVGHRDLFVPAGHARTSFIDTRDIGATAAVILRDPAYIGQKLDITGAQALTYADAAQIMTMELGVPITYSKPSLWRFRKVMLQRGLPKNYVNVMVMLYLITQLGNAKTVTTTLPNVLGRPAISFEQYVHDYRAEFLPKPLS,not soluble
6,MHHHHHHSSGVDLGTENLYFQSMSHQVGVAGAVFDESTRKILVVQDRNKLKNMWKFPGGLSEPEEDIGDTAVREVFEETGIKSEFRSVLSIRQQHTNPGAFGKSDMYIICRLKPYSFTINFCQEECLRCEWMDLNDLAKTENTTPITSRVARLLLYGYREGFDKIDLTVEELPAVYTGLFYKLYHKELPENYKTMKGID,soluble
7,MAHHHHHHMSQKNKKVYDTQNEQENTNSSSNSSSNSDKEIQKDKEEYKKGENNFSILNVEEVNIIELSREELYKVCAELQQKELEALKYIYVLDSELNIKYENDEDKLTIVEINLNDQNISNNHINFTFELPKDYPLGSISIINVTVKNFTPDTNNYINEEVYRYLQRYNEQRECILPVIYKVNEIIENIIQYKEEPGEKSLSSSTEGRSDFDQEQTFNEWDNKNKQRKADIVCFPELSYSMNFSKRPNILARRLCYSHHILSLVKRSCIIKWAKQLKIGGYSKIGYPGIIVCEGPKDEVDFYINSLNKLRWKHFDCRGMEDIELDENENLDDARVLPTTVRELDAKSMRTLSDICTQCGLRDLFLTSMKIYNNNDKKGSVKEKNKNGEENKPGNTKDILKEKGKKKKKRSSK,not soluble
8,MMEQKQEIHATVSINNVQYEVIKNFRDGFSEEAFKERYAEILNKYDYIVGDWGYEQLRLRGFFDDSNQRATYDTKISTLTEYLYEYCNFGCAHFVLRKVKK,not soluble
9,MASMTGGQQMGRGSEEPNPNDGYDYMQHGFDWPGLQEGGTTKYPACSGSNQSPIDINTNQLMEPSSRSGTSAVSLNGLNVDGAQADGITLTNAKVDLEQGMKVTFDQPAANLPTIEIGGTTKSFVPIQFHFHHFLSEHTINGIHYPLELHIVMQEQDPADVATAQLAVIGIMYKYSENGDAFLNSLQTQIEGKIGDGTASYGDTGVSIDNINVKTQLLPSSLKYAGYDGSLTTPGCDERVKWHVFTTPREVTREQMKLFVDVTMGAHAGADVVNNRMIQDLGDREVYKYNY,soluble
10,MKRLLVIGIMYTMFFLIGNIHLHADERTNVKEITSLEEPTWIFQAGISKGKYHDRQDLGFILQRNTPLKVRQTNPNFKDKLTVRLLSNDSKNEKSIQVGNEWITIQGDTPLVPFIDTPYGEEPALLEYQVGNESATKPLPIYKQQGSVSQFFSTWDQFDGEYALIQGESFQLFIPKKDKELVRSLKDFQSLDELIAYYEDIFAMYDSIIGLDGSTVENKKSQNRYFLKADISGAGGAYYGANWTANSTDSTKMWLDKLSWGTLHEIAHGYQAGFDNQGIFTGEVSNNLFGVQYQYSKYGKKADQVGWLFNFGKKEQVERNLYNALMKENKNYDDLDLRQKLILLTMAKQKAGDEAFAKMYQGYRKLASNAAFKKGDHSLPDLMNQYYSENVQVDFTPVFERWGFKLNHKQIEMNRAKGYPAVTSLAYIVPESQLAKARALVDPDIPINSNFEIVRNQQIASLGLKGNLHIHLNTNEIDTLKGGKIKLKEGNTVIQEKTIETADINLQDVPNGIYTVEISGGKTDSMYHFSTYYAYVKEKDNSLTIDVNEMKVSNLVNETIQFLGLGDDQFAELNTDLEQERAVFTVTTKTPHSYYAGEKYASIELFNEKGEKIYTKEMEGTNVTVVKDIIPLKEGYRIKIYHDEVKKRLTSKATIINPMNKTNEIIMTKWGLKNTYLKNNPEENLMKRIDEEMEVIISNPLLKEIPMQKLEMKKNVWMAINMLSEPQKITYINKYKDSLYNE,not soluble
11,MTEAKIVDISSKDIVLREAVVEGYIKLRKETIEKIKNKEVEKGDVITVAKTAGILAAKKTPELIPMCHPIPLEFVDVEIKIEEEGLRVISTVKAHYKTGVEMEALTATSVALLTIWDMVKKYEKDENGQYPYTEIKSIRVINKIKTYDDMK,soluble
12,IPADELFSRDALRKVEDIRNKTKNKSYIRKALKKPWNILVGSLPVGFDFPARIIAEIVDAPKLSLEGLVKKANYYLSEGADIVDIGMVAGETNVKFLDVIPEFREVLGREVPISLDSLNAKELEAGLDFVDMILSVDWSNVEDLVTDKPVVLIPTDMKNGYFPLNPRDRVESLEKLKEKALSLGYKRIIADLILEHYPGFSRSIVAFSLYRDRNREDIMLAGVGNVTEMTDADSPGINALLAGIASELRISMLLTTEVSRKCTGSIRELRRAIDMTLLGGVKDVGLNLLLLKEKKDKGLRFEISKNIVEAKRKEVKLEDTYFRIFVDNGKIYVNAYKGMNLVITIVGNEPNEIMDTILDYFSLSPRHAFYLGRELEKAYTALKLRRSYAQEEELFRDFYTK,not soluble
13,MGSSHHHHHHSSGLVPRGSHMDTTVPTFSLAELQQGLHQDEFRRCLRDKGLFYLTDCGLTDTELKSAKDLVIDFFEHGSEAEKRAVTSPVPTMRRGFTGLESESTAQITNTGSYSDYSMCYSMGTADNLFPSGDFERIWTQYFDRQYTASRAVAREVLRATGTEPDGGVEAFLDCEPLLRFRYFPQVPEHRSAEEQPLRMAPHYDLSMVTLIQQTPCANGFVSLQAEVGGAFTDLPYRPDAVLVFCGAIATLVTGGQVKAPRHHVAAPRRDQIAGSSRTSSVFFLRPNADFTFSVPLARECGFDVSLDGETATFQDWIGGNYVNIRRTSKA,soluble
